These results are taken from patent US20240067748A1 (NONA BIOSCIENCES SUZHOU, published 2024).

In assay [1] the target is T1, human TROP2 protein (Sino Biological, #10428-H08H) (human, UniProt P09758 27-274).
T1 construct: bought protein; also called human Trop2 protein antigen (His tag); not shown: His tag
T1 sequence (looked up): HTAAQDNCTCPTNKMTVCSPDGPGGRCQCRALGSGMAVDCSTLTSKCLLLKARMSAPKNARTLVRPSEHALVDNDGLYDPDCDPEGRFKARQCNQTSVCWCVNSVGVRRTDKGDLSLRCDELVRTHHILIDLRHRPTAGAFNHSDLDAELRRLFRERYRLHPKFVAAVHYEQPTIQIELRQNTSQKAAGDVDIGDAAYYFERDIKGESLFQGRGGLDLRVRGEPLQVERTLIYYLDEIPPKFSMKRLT
Kind of assay: BLI, Octet RED96, AHC sensor. The procedure, abridged: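 First, 200 nM human or monkey Trop2 in PBS (pH 7.4, 0.1% BSA, 0.02% Tween 20) is captured on the sensor. Next, 40 nM antibody binds for 3 min at 30° C.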
A general note: In BLI a coated tip is dipped into the sample, and binding shifts an interference pattern.

Assay [2] deals with T2, monkey Trop2 protein (Sino Biological, #90893-C08H) (monkey, UniProt A0A2K5UE71 27-274).
T2 construct: bought protein; also called monkey Trop2 protein antigen (His tag)
T2 sequence: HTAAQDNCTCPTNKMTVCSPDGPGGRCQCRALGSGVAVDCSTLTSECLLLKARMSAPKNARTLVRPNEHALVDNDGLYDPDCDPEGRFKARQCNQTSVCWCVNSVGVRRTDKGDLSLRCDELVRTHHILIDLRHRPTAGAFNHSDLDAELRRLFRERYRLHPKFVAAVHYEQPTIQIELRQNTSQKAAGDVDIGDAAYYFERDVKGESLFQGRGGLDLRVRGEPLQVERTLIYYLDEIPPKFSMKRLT
Kind of assay: BLI, Octet RED96, AHC sensor. A digest of the protocol:
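Sensor loaded w/ 200 nM Trop2 (human or monkey), PBS pH 7.4 + 0.1% BSA + 0.02% Tween 20. Ab 40 nM, assoc 3 min / dissoc 5 min, 30° C. Real-time binding fit for KD, kon, koff.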

The target in assay [3] is T3, human Trop2 on cells (human, UniProt P09758 27-323).
T3 construct: whole, on cells; also called hTrop2; 293T-human Trop2 cells
T3 sequence (looked up): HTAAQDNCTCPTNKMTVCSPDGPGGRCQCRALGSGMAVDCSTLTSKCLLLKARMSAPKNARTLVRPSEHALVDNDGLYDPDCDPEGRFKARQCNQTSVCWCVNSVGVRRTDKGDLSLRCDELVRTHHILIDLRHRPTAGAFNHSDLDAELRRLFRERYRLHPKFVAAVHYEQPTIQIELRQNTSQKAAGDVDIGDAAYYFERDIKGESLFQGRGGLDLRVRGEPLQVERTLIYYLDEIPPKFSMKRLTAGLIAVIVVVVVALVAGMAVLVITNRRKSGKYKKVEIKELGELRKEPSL
Put plainly: flow cytometry on 293T-human Trop2 cells. A digest of the protocol:
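Cells at 1×10⁶/mL in PBS were incubated for 1 h, washed in PBS+0.5% BSA, then stained with Alexa Fluor 488 anti-human IgG for 1 h at 4 °C. Cell-bound fluorescence was measured by flow cytometry, with all steps on ice.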

The target in assay [4] is T2, monkey Trop2 protein (Sino Biological, …). Kind of assay: BLI, Octet RED96; ratio against KD for human Trop2 protein. How it is done: Specifically, a human TROP2 protein (Sino Biological, #10428-H08H) or a monkey Trop2 protein (Sino Biological, #90893-C08H) was diluted to 200 nM with a PBS buffer (pH 7.4) containing 0.1% (w/w) BSA and 0.02% (v/v) tween 20, and incubated with the AHC sensor respectively. 40 nM Trop2 antibody was incubated at 30° C. for 3 min with the AHC sensor loaded with the human Trop2 protein or monkey Trop2 protein respectively. The reaction mixture was incubated at 30° C. for another 5 min in a PBS buffer (pH 7.4) containing 0.1% (v/w) BSA and 0.02% (v/v) Tween 20. The association and dissociation signals between the Trop2 antibody and the human Trop2 protein or monkey Trop2 protein were recorded by Octet Red 96 in real time. The affinity and the association and dissociation constants were determined by Octet using software.

B1: PR001143 (antibody, human IgG1, kappa, V domains shown)
VH: QVQLVESGGGVVQPGRSLRVSCAASGFIFSTYGMHWVRQAPGKGLEWVAVIWYDGSNEDYVDSVKGRFTISRDNSKNTLYLQMNSLRGEDTAVYYCARGGYNSGWWAFDVWGQGTLVTVSS
VL: DIQMTQSPSSLSASVGDRVTITCRASQGISHFLAWYQQKPGKVPKLLIYAASTLQSGVPSRFSGSGSGTDFTLTISSLQPEDVATYYCQKFNSAPLTFGGGTKVEIKR
notes: fully human IgG1/kappa; also called antibody No. (10)
In the case of B1, in assay [1], the Kd was determined as 6.94 nM, the Response is 0.335, the koff amounted to 0.000556 s⁻¹ and the association rate constant (kon) stood at 80100 M⁻¹ s⁻¹. Besides, in assay [2], the affinity, expressed as Kd, was 12.4 nM; the Response was determined as 0.308; the koff amounted to 0.000645 s⁻¹; the kon came out at 52100 M⁻¹ s⁻¹. Besides, in assay [3], the response was half-maximal at 0.795 nM (EC50), the “Maximum (MFI)” value is 6300 MFI and the Top % stood at 97.2%. In addition, the “KD (monkey)/KD (human)” value in assay [4] is 1.78.

B2: PR001164 (antibody, human IgG1, kappa, V domains shown)
VH: QVQLQQSGPGLVKPSQTLSLTCAISGDSVSSTSAVWNWIRQSPSRGLEWLGRTCYRSKWYNDYAVSVKSRITITPDTSKNQFSLRLNPVTPEDTAVYYCARGDFRFDSWGQGTLVTVSS
VL: DIQLTQSPSFLSASVGDRVTITCRASQGISSYLAWYQQKPGKAPKLLIYAASTLQSGVPSRFSGSGSGTEFTLTISSLQPEDFATYYCQQVKIYPLTFGGGTKVEIKR
notes: fully human IgG1/kappa; also called antibody No. (25)
In the case of B2, in assay [1], the Kd was 2.41 nM, the Response came to 0.194, the koff came out at 0.000262 s⁻¹ and the on-rate constant (kon) amounted to 109000 M⁻¹ s⁻¹. Moreover, in assay [2], the affinity, expressed as Kd, was 2.04 nM; the Response was 0.173; the koff is 0.000162 s⁻¹; the association rate constant (kon) came to 79400 M⁻¹ s⁻¹. Further, in assay [3], the EC50 is 2.4 nM, the “Maximum (MFI)” value came to 8950 MFI and the Top % worked out at 138%. In assay [4], the “KD (monkey)/KD (human)” value turned out to be 0.85.

B3: PR001168 (antibody, human IgG1, kappa, V domains shown)
VH: QVQLVESGGGVVQPGRSLRLSCATSGFIFSSYGMHWVRQAPGKGLDWVAVIWYDGSNKYYADSVKGRFTISRDNSKNTLYLQMNSLRVEDTAVYYCARETSSWYVGYLQHWGQGTLVTVSS
VL: EIVMTQSPATLSVSPGERVSLSCRASQSVNGNVAWYQQKPGQAPRLLIYAASTRATGIPARFSGSGSGTESTLTISSLQSEDCAVYYCQQYNNWPSTFGPGTKLEVTR
notes: fully human IgG1/kappa; also called antibody No. (28)
In assay [1], B3 had a Kd of 1.59 nM, a Response of 0.333, a koff of 0.00014 s⁻¹ and a kon of 88000 M⁻¹ s⁻¹. Moreover, in assay [2], binding was put at a Kd of 2.45 nM, the Response stood at 0.311, the off-rate (koff) was determined as 0.000145 s⁻¹ and the kon amounted to 59300 M⁻¹ s⁻¹. Also, in assay [3], the response was half-maximal at 0.669 nM (EC50), the “Maximum (MFI)” value was determined as 6780 MFI and the Top % is 105%. In addition, the “KD (monkey)/KD (human)” value in assay [4] was determined as 1.54.

B4: PR001153 (antibody, human IgG1, kappa, V domains shown)
VH: QVQLQESGPGLVKPSGTLSLTCAVSGGSISSSNWWSWVRQPPGKGLEWIGEIYHDGSTDYNPSLKSRVIISVDKSKNQFSLKVRSVTAADTAVYYCARDNWGFDYWGQGTLVTVSS
VL: EIVLTQFPGTLSLSPGERATLSCRSSQSVSSSYLAWYQQKPGQAPRLLISGASSRATGIPDRFSGSGSGTDFTLTISRLEPEDFAVYYCQQYGSSPRTFGQGTKVEIKR
notes: fully human IgG1/kappa; also called antibody No. (16)
B4: in assay [1], the Kd turned out to be 0.0323 nM, the Response worked out at 0.381, the “fold lower KD than the reference antibody Tab (hRS7)” value was approximately 10 fold and the koff was 2.53e-06 s⁻¹. In assay [1], this molecule registered an association rate constant (kon) of 78600 M⁻¹ s⁻¹. Also, in assay [2], the Kd turned out to be 0.181 nM, the Response came out at 0.337, the koff was 1.07e-05 s⁻¹ and the kon stood at 59300 M⁻¹ s⁻¹. Also, in assay [3], the concentration giving a half-maximal response (EC50) is 2.47 nM, the “Maximum (MFI)” value was found to be 6940 MFI and the Top % is 107%. Further, in assay [4], the “KD (monkey)/KD (human)” value worked out at 5.61.

The term Kd denotes the constant that tells how readily two partners part at equilibrium. A word on the koff: it is the first-order rate constant of dissociation. As usually defined, the kon is the rate constant with which the complex forms. What is called EC50 is the concentration needed to bring the measured effect to its halfway point.
